We go through 1 molecule from patent publication EP4711453A1, “PHENYLALANINE LYASE MUTANT, AND CONJUGATE THEREOF OR PHARMACEUTICALLY ACCEPTABLE SALT THEREOF” (Peg-Bio Biopharm Co., Ltd. (Chongqing), priority 2023, dated 2024).

Series [1] can be described thus: Specific enzyme activity of phenylalanine lyase (trans-cinnamic acid formation, absorbance at 290 nm). The series is classed as biochemical. On the procedure: Phenylalanine lyase specifically catalyzes the conversion of phenylalanine into trans-cinnamic acid with the release of ammonia. […] Enzyme activity is defined as the amount of enzyme required to produce 1 µmol of trans-cinnamic acid per minute in buffer (100 mmol/L Tris-HCl, pH 8.5) at room temperature (25°C) as one unit of enzyme activity.
The specific enzyme activity of phenylalanine lyase and its mutants (i.e., PAL, PAL2, PAL3, and PAL4 proteins) prepared in Example 1 was evaluated by taking an appropriate amount of test sample and diluting it to 0.4 mg/ml using assay buffer (100 mmol/L Tris-HCl, pH 8.0). 2.9 ml of substrate solution (100 mmol/L Tris-HCl, 45 mmol/L Phe, pH 8.0) was placed in a cuvette, followed by addition of 0.1 ml of diluted test solution and immediate mixing. The changes in absorbance per minute were recorded at a wavelength of 290 nm, and the specific enzyme activity was calculated according to the formula. Enzyme activity (U/mg) = (AS−AO)VN × 10^6 /εLTV1 [formula]
Where AS and AO represent the absorbance of trans-cinnamic acid at the […] of the reaction, respectively; V is the total volume (L) of the reaction system; L is the optical path length of the cuvette (cm); ε is the molar extinction coefficient of trans-cinnamic acid (10238.1 L/(mol·cm)); T is the reaction time (min); N is the dilution factor of the test sample; V1 is the volume of test sample (ml).
The enzyme activity retention rate was calculated by comparing the specific enzyme activity of phenylalanine lyase mutants with the specific enzyme activity of the phenylalanine lyase. Table 2: Specific enzyme activity of phenylalanine lyase mutants
The specific enzyme activity of the polyethylene glycol conjugates of phenylalanine lyase and its mutants prepared in Step 1 of Example 2 was determined according to the method described in Step 1 of this example. The enzyme activity retention rate was calculated by comparing the specific enzyme activity of each conjugate with its specific enzyme activity prior to PEG modification (e.g., the enzyme activity retention rate of PL5-1 = specific enzyme activity of PL5-1 / specific enzyme activity of PAL protein). Table 3: Specific enzyme activity of PEGylated phenylalanine lyase mutants

Details of series [2]: species or system Pah^enu mice. Particulars: mouse, in vivo. The procedure: (§1) To evaluate the polyethylene glycol conjugate PL54 of site-saturation modified phenylalanine lyase mutant, […] Pah^enu mice were allocated into five groups (four experimental groups and one control group), with six mice in each group. PL54-5 (average degree of modification 13.60, specific enzyme activity 1.27 U/mg) from Table 3 of Example 2 was administered to phenylketonuria animal model mice at low, medium, and high doses of 0.5 mg/kg, 1.5 mg/kg, and 4.5 mg/kg, respectively, via subcutaneous injection. The high-dose group of 4.5 mg/kg also included a group receiving intramuscular administration, once per week. The control group was administered phosphate buffered saline as a placebo subcutaneously once weekly. Blood samples were collected from mice in each group at 1 h before administration and at 2, 5, and 7 days after administration for each group. The content of PL54-5 in serum, changes in phenylalanine concentration (Reference: Judy Peat et al., Determination of Phenylalanine and Tyrosine by High Performance Liquid Chromatography-Tandem Mass Spectrometry), and Anti-PEG-IgM/IgG antibody titers (see Example 5 for details) were detected by sandwich ELISA (see Example 5 for details), and their pharmacokinetics were evaluated, see FIG. 6 to FIG.9 for details.

For another series, the system named is anti-PEG antibodies. Further details: species or system Pah^enu mice. The settings on record: mouse, in vivo. On the procedure: as §1
A short description of series [3]: Subcutaneous/intravenous pharmacokinetics in dogs (double-antibody sandwich ELISA). The series is classed as in vivo. The settings on record: beagle dogs; for dogs with accelerated blood clearance: 2 mg/kg once weekly. On the procedure: […] Six beagle dogs were equally divided into two groups: the subcutaneous administration group and the intravenous administration group. […] Blood samples were collected from both groups on days 1, 3, 5, and 7 after the first administration, and on Day 1 and Day 3 after each subsequent administration. Serum plasma drug concentrations were measured using the double-antibody sandwich ELISA method (see Example 5 for details).
(In an ELISA, binding on a coated surface is turned into a signal by an enzyme label.)

The test system of series [4] is anti-PEG IgG and IgM antibodies. The experiment in a line: Comparative immunogenicity with Pegvaliase: anti-PEG IgG and IgM antibodies after multiple administrations. The series is classed as in vivo. Particulars: Pah^enu mice, 3 mg/kg s.c. once weekly for four weeks. From the text: To evaluate the differences in pharmacodynamics and immunogenicity between the polyethylene glycol conjugate PL54-5 of directionally saturated modified phenylalanine lyase mutant and Pegvaliase (marketed drug), eight Pah^enu mice were allocated into two groups of four mice each, and administered with either PL54-5 (average degree of modification: 13.60, specific enzyme activity: 1.27 U/mg) from Table 3 of Example 2 or Pegvaliase Injection (manufactured by BioMarin, purchased lot number L161239, specification: 20 mg/mL/vial) at an administration dose of 3.0 mg/kg, once weekly via subcutaneous injection for four consecutive weeks. Blood samples were collected from each group of mice before administration and at 3 days and 7 days after each administration, respectively. Changes in serum phenylalanine concentration were measured (Reference: Judy Peat et al., Determination of Phenylalanine and Tyrosine by High Performance Liquid Chromatography-Tandem Mass Spectrometry) and anti-PEG-IgM/IgG antibody titers of each animal were determined at the end of the study (see Example 5 for details), to assess differences in pharmacodynamics and immunogenicity, as shown in FIG. 11 and FIG. 12.

B1: PL54-5: polyethylene glycol conjugate of PAL4 (SEQ ID NO: 6) with PEG-SPA-5K, molar ratio 1:16, average degree of modification 13.60 (conjugate)
chain: MKTLSQAQSKTSSQQFSFTGNSSANVIIGNQKLTINDVARVARNGTLVSLTNNTDILQGIQASCDYINNAVKSGEPIYGVTSGFGGMANVAISREQASELQTNLVWFLKTGAGNKLPLADVRAAMLLRANSHMRGASGIRLELIKRMEIFLNAGVTPYVYEFGSIGASGDLVPLSYITGSLIGLDPSFKVDFNGKEMDAPTALRQLNLSPLTLLPKEGLAMMNGTSVMTGIAANCVYDTKILTAIAMGVHALDIQALNGTNQSFHPFIHNSKPHPGQLWAADQMISLLANSQLVRDELDGKHDYRDHELIQDRYSLRCLPQYLGPIVDGISQIAKQIEIEINSVTDNPLIDVDNQASYHGGNFLGQYVGMGMDHLRYYIGLLAKHLDVQIALLASPEFSNGLPPSLLGNRERKVNMGLKGLQICGNSIMPLLTFYGNSIADRFPTHAEQFNQNINSQGYTSATLARKSVDIFQNYVAIALMFGVQAVDLRTYKKTGHYDARASLSPATERLYSAVRHVVGQKPTSDRPYIWNDNEQGLDEHIAKISADIAAGGVIVQAVQDILPSLH
modifications: PEG-SPA-5K conjugate, ~13.6 PEG per molecule
Consider B1, for which the “Enzyme activity retention rate” value in series [1] (conjugate compared with its protein prior to PEG modification) is listed as 83%. This molecule gave a Specific enzyme activity in series [1] (polyethylene glycol conjugates, method as for the proteins) of 1.27 U/mg. Also, the “plasma drug concentration in relation to the administration dose” value in series [2] is on record as “directly proportional to the administration dose”. In addition, the “plasma drug concentration, intramuscular compared with subcutaneous” value in series [2] (4.5 mg/kg) is reported as “higher than that in the subcutaneous administration group”. For the same molecule, the “S/N values of IgG and IgM antibodies (anti-PEG)” value in the series with anti-PEG antibodies is listed as “decreased with increasing number of administrations”. The anti-PEG antibodies entry with anti-PEG antibodies is “positive”. Further, the “bioavailability of subcutaneous administration relative to intravenous administration” value in series [3] (2 mg/kg) stood at 64.4%. Also, the “dogs with accelerated blood clearance” value is reported as 2/3 in series [3] (after multiple intravenous administrations) and 1/3 in series [3] (after multiple subcutaneous administrations). Further, the “peak time of blood drug concentration” value was 1 days in series [3] (2 mg/kg, single intravenous administration) and 3 days in series [3] (2 mg/kg, single subcutaneous administration). In addition, in series [4], the “immunogenicity after long-term administration” value is on record as “significantly lower immunogenicity than pegvaliase”.
